Data: paper PMC5498496

Tests used:
[1] = αIIbβ3 cell surface expression, flow cytometry; settings: glycan lost; control: wild-type αIIb with β3
[2] = eptifibatide-induced mAb binding, flow cytometry; settings: glycan lost; control: wild-type αIIb with β3
[3] = β3-K716A-mediated mAb binding, flow cytometry; settings: glycan lost; control: wild-type αIIb with active β3-K716A
[4] = surface expression by mAbs 10E5, AP2, AP3, flow cytometry; settings: glycan lost; control: wild-type αIIbβ3

Row | Substance | expression_or_secretion [1] | structure_or_conformation [2] | further results
1 | integrin αIIb subunit: αIIb-N931Q | decreases |  | 
2 | integrin αIIb subunit: αIIb-N931S |  | no change | 
3 | integrin αIIb subunit: αIIb-N249Q | decreases |  | 
4 | integrin αIIb subunit: αIIb-N570Q | decreases |  | 
5 | integrin αIIb subunit: αIIb-N249S |  | no change | structure_or_conformation [3]: no change
6 | integrin αIIb subunit: αIIb-N15S |  | no change | expression_or_secretion [4]: no change
7 | integrin αIIb subunit: αIIb-N15Q | no change |  | 
8 | integrin αIIb subunit: αIIb-N680Q | decreases |  | 
